Biological target: taxol-stabilized microtubules polymerized from porcine brain tubulin, P02550
Test: MT-binding assay (cosedimentation)
Settings: chain shown with the change, […] taxol–MTs, parent: est. 1.0, read off a plot

taxol-stabilized microtubules polymerized from porcine brain tubulin, P02550, sequence (P02550 whole entry, chain 1 of 2): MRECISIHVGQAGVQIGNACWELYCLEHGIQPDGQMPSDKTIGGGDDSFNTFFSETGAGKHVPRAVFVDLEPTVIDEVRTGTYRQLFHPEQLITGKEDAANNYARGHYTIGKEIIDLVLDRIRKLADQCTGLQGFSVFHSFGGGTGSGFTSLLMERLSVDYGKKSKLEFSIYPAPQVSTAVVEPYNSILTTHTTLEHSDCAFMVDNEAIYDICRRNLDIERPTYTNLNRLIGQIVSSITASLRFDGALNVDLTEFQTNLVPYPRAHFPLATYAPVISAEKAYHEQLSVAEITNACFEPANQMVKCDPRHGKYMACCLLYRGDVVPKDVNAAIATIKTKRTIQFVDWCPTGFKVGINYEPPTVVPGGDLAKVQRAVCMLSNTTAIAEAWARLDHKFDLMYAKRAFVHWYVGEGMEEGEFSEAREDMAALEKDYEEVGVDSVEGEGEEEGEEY
taxol-stabilized microtubules polymerized from porcine brain tubulin, P02550, sequence (chain, as listed by the source, chain 2 of 2): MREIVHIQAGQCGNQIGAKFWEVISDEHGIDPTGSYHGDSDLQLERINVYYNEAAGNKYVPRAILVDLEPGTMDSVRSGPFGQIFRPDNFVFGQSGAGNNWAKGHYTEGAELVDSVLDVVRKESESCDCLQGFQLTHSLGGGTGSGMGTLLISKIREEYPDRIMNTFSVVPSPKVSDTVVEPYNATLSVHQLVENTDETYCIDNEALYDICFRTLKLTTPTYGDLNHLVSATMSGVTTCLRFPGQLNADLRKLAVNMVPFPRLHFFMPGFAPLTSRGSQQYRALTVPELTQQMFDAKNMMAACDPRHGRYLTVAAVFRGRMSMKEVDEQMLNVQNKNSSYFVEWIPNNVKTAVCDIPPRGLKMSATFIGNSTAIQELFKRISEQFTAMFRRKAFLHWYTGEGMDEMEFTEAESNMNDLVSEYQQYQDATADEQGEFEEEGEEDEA

| Binder | ratio to parent (5 μM CG1 mutant) | ratio to parent (5 μM CG2 mutant) |
| --- | --- | --- |
| CLIP-170 CG1 fragment (58-140), P30622 K98E (protein) FRVGERVWVNGNKPGFIQFLGETQFAPGQWAGIVLDEPIGENDGSVAGVRYFQCEPLKGIFTRPSKLTRKVQAEDEANGLQTT | 0.28 | – |
| CLIP-170 CG1 fragment (58-140), P30622 K123A (protein) FRVGERVWVNGNKPGFIQFLGETQFAPGQWAGIVLDEPIGKNDGSVAGVRYFQCEPLKGIFTRPSALTRKVQAEDEANGLQTT | 0.52 | – |
| CLIP-170 CG1 fragment (58-140), P30622 K98E; N99D (protein) FRVGERVWVNGNKPGFIQFLGETQFAPGQWAGIVLDEPIGEDDGSVAGVRYFQCEPLKGIFTRPSKLTRKVQAEDEANGLQTT | 0.42 | – |
| CLIP-170 CG2 fragment (206-288), P30622 K238A (protein) KKGERELKIGDRVLVGGTKAGVVRFLGETDFAAGEWCGVELDEPLGKNDGAVAGTRYFQCQPKYGLFAPVHKVTKIGFPSTTP | – | 0.97 |
| CLIP-170 CG2 fragment (206-288), P30622 K224A (protein) KKGERELKIGDRVLVGGTAAGVVRFLGETDFAKGEWCGVELDEPLGKNDGAVAGTRYFQCQPKYGLFAPVHKVTKIGFPSTTP | – | 0.4 |

Further lines, results first:

| ratio to parent (5 μM CG1 mutant) | ratio to parent (5 μM CG2 mutant) | Binder |
| --- | --- | --- |
| – | 0.8 | CLIP-170 CG2 fragment (206-288), P30622 N253A (protein) KKGERELKIGDRVLVGGTKAGVVRFLGETDFAKGEWCGVELDEPLGKADGAVAGTRYFQCQPKYGLFAPVHKVTKIGFPSTTP |
| – | 0.28 | CLIP-170 CG2 fragment (206-288), P30622 K252A (protein) KKGERELKIGDRVLVGGTKAGVVRFLGETDFAKGEWCGVELDEPLGANDGAVAGTRYFQCQPKYGLFAPVHKVTKIGFPSTTP |
| – | 0.23 | CLIP-170 CG2 fragment (206-288), P30622 K252E; N253D (protein) KKGERELKIGDRVLVGGTKAGVVRFLGETDFAKGEWCGVELDEPLGEDDGAVAGTRYFQCQPKYGLFAPVHKVTKIGFPSTTP |
| – | 0.75 | CLIP-170 CG2 fragment (206-288), P30622 K277A (protein) KKGERELKIGDRVLVGGTKAGVVRFLGETDFAKGEWCGVELDEPLGKNDGAVAGTRYFQCQPKYGLFAPVHAVTKIGFPSTTP |

— publication PMC9062740
